# Laboratory results from publication PMC3102065.
# Several values for one entry are separate records, joined by “and”; a condition that tells them apart may be missing. Identical values can stand only once.
# Biological target: HSP90N (human HSP90 isoform that lacks the N-terminal ATPase domain) (human) (UniProt P07900)
# Assay: AUC; sedimentation velocity of fractions from the S-300 column, 0.3 mg/ml in 100 mM Tris-HCl, 45,000 rpm, 20°C, c(s) distribution (SEDFIT)
substance,measurement,value
HSP90N (human HSP90 isoform that lacks the N-terminal ATPase domain) (from UniProt P07900-1 224-732) (natural protein),stoichiometry N,2 and 4 and 6
